Assay results reported in the supplement of paper PMC11502859.

The substances below were run on HEK293T (assay: median enrichment of reporter reads in eGFP-reduced (low/intermediate) vs eGFP-high sorted cells (eGFP-extension fusion abundance) (ratio); higher = stronger loss of eGFP-fusion protein abundance (more destabilising extension)).
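Note: lentiviral eGFP-IRES-mCherry reporter pool sorted by FACS 96 h post-transduction, gated on mCherry-high cells, Illumina read counts normalized per million, median across four biological replicates.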

Chain of RBP1 (chain, as listed by the source): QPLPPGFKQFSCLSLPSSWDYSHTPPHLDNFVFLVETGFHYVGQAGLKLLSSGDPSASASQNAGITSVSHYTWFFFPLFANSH

Substance | median enrichment
YLL [TOR1AIP2] | 3.21
LRKLILLIFMTNLYICF [RGS18] | 14.1
SGSIFLIDEKNNSVMAIYPC [NDUFA1] | 9.19
RRAGGGWWPRRQHTTRLHTCMLSPRGNGLYIAHFTLFRRHFIPALVLLEGLSRQSSSCSASVCDSPPSTPMALSLGDSSSPRK [PRKAB1] | 5.36
QIQGHK [RILPL2] | 0.367
GIIIISTCPQFLSQSPSILTCTHSDAD [TCHHL1] | 3.49
RAGVCWHRQPPLWALGGPLKGSPTRGPDESFLSGVGSQRGSPPAAWGRAWPGRVIQRVCQPLTGSPSVAATRSTELLQPRGQL [FAM53B] | 6.39
QACPAVNLHLEP [SEC16A] | 0.624
APSCLSRCDRARPKPGCTLLDWASLHCLGKSAEGPKLLRGLRLVPTPKLVCSLPLPARVSGPRSIENTTTMARWKGLLVPASS [MLST8] | 5.58
FFFFF [Phe05] | 7.46
LGLGRAHSAG [ATPAF2] | 10
EGTLQSLFHIFKPH [HMCN1] | 7.78
YLDQSKCGLNLLVDQC [SLC25A3] | 13.3
YPGASWLRLAPSGHLPWSDPFQMKCGDIDLFFFFFETEFHSCCPVWSAMAQSQLTATSASWVQAILLPQPPK [SPC24] | 7.7
RMKSTASE [SERPINI2] | 0.64
RLWSRHPAEWGPRGCQLGALPLAATLWSGRVLHHQEDPILSSVSCPSCCGMLSTEPTAHLPLHLPESVSICNKRQPRLPRAVS [INAFM1] | 3.36
RBP1 | 6.79
LGALPGTGSLTSQD [KIF19] | 0.309
ETLNILSLIFN [POLK] | 8.07
LLRPGALGARP [APOBR] | 9.86
RSNLYVLPKKPKTAFD [C2orf15] | 1.27
IIII [Ile04] | 11.9
LMSMSEGKENFGHQNPAPSELKELIYFMKLILLCVCSWC [GALNT15] | 12.1
CVSSFTDSPQPFSCLKT [DPH6] | 3.83

Substance | median enrichment
WLFCKSVLGGPSLRV [OR9A2] | 4.81
RAPAVIIQHDAA [PLXNA1] | 5.99
REPKGDWALWQLLSHTVDHSSPSCSLSSSECGW [TRIM66] | 12.8
KRASTSEWPHLCPRC [NUMA1] | 0.399
YGWGRVAASFVPTGGSHNSFDL [ELP5] | 5.96
PVGKGGGLRGRGWMPRAPKPPFPFVSKGVRSELRKRASECVSLEGLGALWCYHLETCLMPPCLPMEDRLQELGPCGNLACFGG [MTA2] | 6.97
LAAWDRSTNYTGSGIRVSKMSYECRSEGHMLTLESVER [NLRP7] | 13.6
LNI [WDR78] | 0.527
EETTHPEPQHCLTLGTRDPTEMFWRAGGFPQSPPSSSPSNQSCV [SERPINA6] | 0.705
LKSP [SPATA5L1] | 0.47
CSDVPFIYNNVKCNCLVP [TCP1] | 4.71
KKKKKKKKKK [Lys10] | 1.08
WAPGTAPHCQLPLLGGPGRRVPPSPCQGPGDPLPGCLRLLLRRGNAKKEKEKPRARPLPPAVHCAASSVPGLTVPLSSAPARQ [NRXN2] | 6.68
EESATNYNFTIKTGKRPGMVAHACNHSTLGG [OR6C6] | 6.68
KKVGTMRGVGYP [Degron APPBP2] | 4.39
SWVCAQPFKAAGSTT [TRIM45] | 4.99
WSILQDLPEAA [PCDH10] | 9.03
GGCRRRPSWCRQAGHRDPGPAQETAFFSRYNRRQKKRVPPLPNRSFWQGVPNAKTQRCGWHLLPHSFKIVKKC [FOXF1] | 9.48
LTLQAGTVLLLSLQYIR [GTPBP2] | 9.07
YKRIS [KCNN2] | 1.05
RPSTVPGP [HYKK] | 0.522
REEWGRLRSCGPRPRSLRGCLGDHLDLEAESAILPD [DHRS2] | 2.36
SRATGPQQCEGSLAAHPAAGAQPLPGMRLSADGETATQSFGLCVCVCVCVCVCAHPRVPVCVRILPPGAEVPWVSPLLCNGLL [FGFR3] | 6.49
GGGGGGGGGG [Gly10] | 11.7

Substance | median enrichment
SGARLWDRPGPASGGDPGSGLGSPDLEACPSRASQD [CEBPA] | 0.648
WGPAWHPVTPPQCLSWP [CSHL1] | 7.99
LPARPHGQPVASCRPHSPGTVSCLCVRPPLPCLLRHPPPHIHTQRFDKLLVFNE [SMTN] | 7.46
YKCGKAFTKSSYCVQHLKFNTEQMQYKCNDSGRTFIILEGL [ZNF736] | 22.3
RSKDNGVFFL [USP44] | 1.94
KFSLLHYVHKGDHYHWGRNSCLVQCGKFLYIR [PDZRN3] | 12.1
SVIPGLSTPASPPAAGTALTLLSDPHSFPEMLRMFISPAPDPMSPGLRVCFPHIGLTVSL [KLK5] | 12.1
KTAPPTSVQAGRSP [NCAPD3] | 7.59
REKGNAQERNTVSPISDLDSTGYMEEI [OR8B8] | 0.597
YPV [HNRNPUL1] | 0.542
RGPPLAKACGRRWRPSLGRFQGASGKPDGCWWPFPRGLVSGPAQSLLRGRGWRLGSPACLAPPSERAALLSY [ARL6IP4] | 10.9
SRNMSSQGIETALNSLTSRL [PCLO] | 3.6
YEISLPGWEERKWGCPGETRNLPSPGWGQGLC [HOXB13] | 3.71
LAHPKYACHLRPQAGHTGQPACRQDLPASSSQYSLQRLKCEAPAPPSALQPTGPGRTCPLSVSPSRVPRWRPLSTG [PAK6] | 3.88
RGWDPLLKLVASAGLGAAPQRLQLIC [FES] | 32.6
YNIYSYDKDT [HCRTR2] | 5.01
LARAPRGHLGRPREAEGHGVGGSRRVPASMVPALDLQLP | 5.4
SYGTLAPRHEARWPVFLNLKCKILLFPGPRRV [ICOS] | 11
LDRTCLRGRRTLAWAQESEAAFLLRGPSGESGPRYHARTLRGPVSCRRVSTFPPNPGLTALRSARRARAETRVGCGELKEPIK [UQCC3] | 3.74
YNFFHLRNYCDL [CHD6] | 19.1
EHH [SPRR2G] | 0.297
KILNLVCRPSRGIKRLALVVKNKADSQTRSDFCPCSSFDVLSVALFLIASSTCKMLFTFCLG [DAB2] | 18.3
SWPPASASSYLLPGSPPRRPPYRERGFTR [OGG1] | 6.11
WKGRAQQCK [IRX2] | 0.459

Substance | median enrichment
RDKVRVFSSYILSQATLQDVAKAYIFP [IPCEF1] | 3.59
WGATSFSTTMLLHFPTPTRPPSSPPTPFSHSHPHHRSLDCWEWKPGGVMAQVL [RAMP2] | 8.95
LTEQLLMSGG [NDUFS5] | 5.57
EIPQHGSLMFICCLSFLLSFPVCFQFSTSSAHPVLCPFVCVRTI [PCLO] | 8.91
YRHQVW [SMAD3] | 1.22
LPLARSLPSVHRSQFHRWRRCLR [PIPOX] | 10.5
CEA [NPSR1] | 10.3
SGLLALTLQPTLAVWPSPGSFPAPLPLFPVLLNSPSWRVQALGMGGTRPHSFHRALRPDTADQPHSAQEAASGVGAQRGTAAS [BAP1] | 1.74
LLHERMQRMQFPGCAVDFFQQV [CEP112] | 20.7
YAAIDSRSLYTVTSEDYT [SLC46A3] | 6.41
YYYLQMKLTYTDLSSLMKKIRCYPIK [RBM11] | 13
YNIYKLWVLDGLS [RBM41] | 3.9
RPETECQPKESSCKTVIYCEYLHHMGSLMVNIFLQSC [TXK] | 12.5
QCPN [LRRC3B] | 0.337
WPTSRIYSSWKLPNGEDSTKY [KRTAP24-1] | 3.66
YSFTNQVP [SMAD2] | 0.532
YGREARAAPAFLLQIWAAVARAVSPVAEPSGRCGNRRSSVAPVS [CPTP] | 7
YDVQRRLNKCTAE [VPS33A] | 0.744
RRRRRR [Arg06] | 0.898
SHHQELTHT [NUP88] | 0.49
SGIRLPGNSGTVALADHLQHPAS [SLC2A10] | 0.633
CAAQTEAQAQGRNLEQGHFGHSRTGERQLYFSLGQLQRVGQALMGSDCQSDAVGPRQRKAGRRGARTFSPHCPFPFSGEHRRL [C16orf58] | 4.54
LCT [DUSP22] | 1.23
SDS [POLE2] | 0.445

Substance | median enrichment
PKWNHLTSAAPDLPGRMPLPLPSSNPQTRTPFLPPQAGPAPGVGSALSTPRAPRPSEGAPAGASDTLQFRAVGGLGHIPVPWL [SECTM1] | 1.79
SVAMVKVSVAAAAMASRRRCWDCFALEPASGCPLQWLCYCMDCILDFMCMSQ [DYNLL2] | 11
WQMVIPFYFSS [CXorf1] | 10.3
RILPNALSENAELPFLFASFIFNIHNVVCLKVGFEVCAAYSFHLSPRFPSL [RRAGA] | 15.7
LLRDPAPPL [AHSP] | 4.96
WWWWWWWWWW [Trp10] | 4.65
CGLGRFS [IMMT] | 0.695
SPERSQDPSRQHQLTDALVVPPSSPDCARSAVPSSGHLSSLWVPPHPSPC [RBP5] | 3.81
HHHHH [His05] | 0.675
GLPPWSLNPAPTSCLFS [PRDM10] | 5.78
LEPAAPASHLCLERTSAACQF [ECHS1] | 0.709
YRCEGIGETLGWLVMVSIAGHQKLDS [B4GALNT2] | 17.4
QGPGLRREALSQRLPHPSPLAFNSVASCSPAAEPPRIRLHVTLKLTNFHGPH [FYN] | 20.4
ESFHMIFCHIKHIVCLTVYRILKCSGCKTRDYLYAQNSYIFINEFNILFILVRAGQPFWVTQLIYQLIQIIEYIHNQADTS [PLS1] | 11.2
WKRD [RER1] | 0.349
RCRVFSSFFLLQEFVVT [MMP16] | 3.48
AAAA [Ala04] | 11.6
LHSL [ZNF443] | 0.555
CDQLSCTNFEV [IFNGR1] | 0.207
WGSGFVSAAAYPCPMCPPLPVLRASGMVQALRKVRVAVWEPLCLAPGYPGPGNLRAGERWGGRHAEVLLVTGLPSLTCTYLHP [SLC36A1] | 4.72
QQQQQQQQ [Gln08] | 0.342
WPLDVGKPCGPPLITSSPRMTAEPQASGAGLMYPNLGQHDCRSIQSLPAPSMKGPPKTVLGTQCVAGSPPS [MINDY4] | 0.736
